Consider one substance from patent US20230313217A1, “CHLOROPLAST TARGETING PEPTIDES AND CONJUGATES AND COMPOSITIONS THEREOF” (The Regents of the University of California, priority 2021, published 2023).

Data set [1] relates to Arabidopsis leaf tissues. As to the kind of experiment: Chlorophyll content index (SPAD) measurements. In kind it is in vivo, Arabidopsis thaliana. The settings on record: 20 mg/L / 2 mg/L. As for the experimental part: Chlorophyll content index (CCI) was measured in plants treated one and five days after treatment with nanomaterials and buffer control solution (10 mM TES, pH 7.0). Three-week-old Arabidopsis plants were exposed to β-CD, TP-β-CD, pATV1-SWCNT, or TP-pATV1-SWCNT. The CCI measurements were performed using chlorophyll meters (SPAD-502 plus, Konica Minolta, Tokyo, Japan; CCI readout resolution: 0.1) with each leaf being measured three times for CCI readouts. The onset of leaf senescence was determined by a marked decrease in chlorophyll levels (FIG. 14B). Experiments before 4-weeks of development are ideal to avoid plant senescence symptoms such as the increase in programmed cell death rates and decrease in chlorophyll content.^6-9

The subject of data set [2] is Arabidopsis leaf mesophyll tissue. The data set can be described thus: Plant cell viability assay (propidium iodide, percentage of dead cells). It counts as in vivo, Arabidopsis thaliana. As for the experimental part: Impact of Targeted Nanomaterials on Plant Cell Viability. We investigated the viability of plant cells treated with increasing concentrations of targeted and nontargeted nanomaterials by measuring the percentage of dead plant cells. Arabidopsis leaf tissues were treated with targeted nanomaterials at 20, 100, 500 mg/L concentrations of TP-β-CDs or 2, 5, 10 mg/L of TP-pATV1-SWCNTs (FIG. 6, Table 1). Biocompatibility assays were performed up to 5 days of nanocarrier exposure before control Arabidopsis plants experienced the onset of leaf senescence marked by significant changes in chlorophyll levels (FIG. 15A). On day 7, significant differences in chlorophyll were detected in control Arabidopsis plants without nanomaterials. […] Therefore, subsequent experiments assessing the impact of targeted nanocarriers on plant cell and molecular biology were focused on biocompatible concentrations of 20 mg/L for TP-β-CDs and 2 mg/L for TP-pATV1-SWCNTs.
The percentage of intact cells was determined in Arabidopsis thaliana leaf tissues treated with TP-β-CD (20, 100, 500 mg/L) or TP-pATV1-SWCNT (2, 5, 10 mg/L) from one to five days. The nuclei of dead cells were stained with propidium iodide (PI) diluted to 1× concentration manufactures (Plant cell viability assay kit, PA0100, Sigma-Aldrich). Leaf discs were collected and incubated in PI dye for 15 minutes before confocal analysis. PI can enter cells with damaged membranes, and bind to double-stranded nucleic acids in non-viable cells. […] The total number of cells was determined using chloroplast autofluorescence to identify the leaf mesophyll cell boundaries. The leaf disc surface was washed with DI water to remove the residual dye and mounted on a microscope glass slide for imaging by laser scanning confocal microscope (TCS SP5, Leica Microsystems, Germany). Confocal imaging settings were as follows: ×40 wet objective (Leica Microsystems, Germany), propidium iodide dye excitation by a 543 nm laser (40% power), and PMT emission detection range set to 590-630 nm with Pinhole size set to 3 airy units.

The nature of data set [3]: ζ potential of carbon nanostructures (Zetasizer). It counts as physicochemical. As for the experimental part:
(§1) The resulting PEI-SWCNT suspension was characterized by measuring the absorbance spectra on a UV-vis absorbance spectrophotometer (UV-2600, Shimadzu). The quality of the SWCNT suspension was determined by analyzing absorbance peaks at 632 nm. This measurement was performed with triplicates. The concentration of the PEI-SWCNT was determined spectrophotometrically using the absorption value at 632 nm and utilizing the equation (absorbance at 632 nm/extinction coefficient of 0.036)=mg L^−1. The final concentration obtained after purification ranged from 18 to 30 mg/L. The nanoparticle ζ potential was measured using a Zetasizer (Nano ZS, Malvern Instruments) in samples suspended in 10 mM TES buffer pH 7.0, with 0.1 mM NaCl. The hydrodynamic size was measured using Zetasizer (Nano ZS, Malvern Instruments) in samples suspended in a 10 mM TES buffer at pH 7.
Characterization of Nanomaterials. All nanomaterials were characterized by absorbance UV-vis spectroscopy (UV-2600 Shimadzu), hydrodynamic size (Nano S), and ζ potential (Nano ZS). The nanomaterial ζ potential and hydrodynamic diameter were measured in a 10 mM TES buffer (pH 7.0). The ζ potential measurements were performed in 0.1 mM NaCl to improve conductivity and analyzed by the Hückel approximation model.^111 CD fluorescence emission was collected using a fluorescence spectrometer (Horiba PTI QM-400). The stepwise synthesis of TP-β-CDs was analyzed using FTIR (Thermo Nicolet 6700 FTIR).

Data set [4] deals with plant cell membranes. The data set can be described thus: Plant cell membrane intactness (PI staining, confocal). Conditions: after 5 days of exposure; 20 mg/L / 2 mg/L. It counts as in vivo, Arabidopsis thaliana. From the text:
(§2) Interactions of Targeted Carbon Nanostructures with Plant Cell and Chloroplast Membranes. Damage to plant lipid membranes may cause ion and molecule permeability changes across the membrane, interruption of metabolic processes, intracellular signaling, and trafficking of biomolecules.^65,66 The application of targeted nanostructures with high charge allows penetration of plant cell barriers and localization inside organelles that could cause disruption in lipid membrane integrity. Plant cell membrane intactness in leaves treated with TP-β-CDs or TP-pATV1-SWCNTs (Table 1) was assessed by staining dead cells with propidium iodide (PI) dye followed by imaging under confocal microscopy (FIG. 7A). PI is a nonpermeable dye that only crosses the cell membranes when they are damaged. The overall percentage of intact cells without PI stained nuclei was calculated relative to the total number of cells (FIG. 7B). […] Both TP-β-CDs and TP-pATV1-SWCNTs maintained more than 93% of plant cells with intact membranes after 1 and 5 days of exposure, similar to controls without nanoparticles (FIG. 7B). […]
The percentage of intact cells was determined in Arabidopsis thaliana leaf tissues treated with TP-β-CD (20, 100, 500 mg/L) or TP-pATV1-SWCNT (2, 5, 10 mg/L) from one to five days. […] The total number of cells was determined using chloroplast autofluorescence to identify the leaf mesophyll cell boundaries. […]

The subject of data set [5] is whole plant cell DNA. The settings on record: in vivo.
Protocol: DNA was extracted from plant leaf tissue and prepared using a Quick-DNA Plant/Seed DNA Miniprep kit (Zymo) in leaf samples treated with nanomaterials from one to five days. Each DNA sample contained 150 mg of plant tissue or 1 mL of isolated chloroplast suspension collected as explained above. Samples were placed in liquid nitrogen-filled mortar and pestle, ground, and placed directly into a Zymo BashingBead Lysis Tube with 750 μL BashingBead Buffer. The mixture was homogenized on a mixer mill (Retsch MM 400) for 10 minutes at 28 Hz. The DNA extraction was performed according to the manufacturer's instructions (zymoresearch.com) and concentrations were measured using a Nanodrop ND-1000 Spectrophotometer. Samples were stored at −20° C. until used for the 8-OHdG DNA damage biomarker assay.
We determined the amount of oxidative DNA damage in plant leaves treated with nanomaterials for one day or five days using an enzyme-linked immunosorbent assay (ELISA) for 8-hydroxydeoxyguanosine (8-OHdG). The OxiSelect™ Oxidative DNA Damage ELISA Kit (Cat# STA-320, Cell Biolabs, inc.) quantifies the amount of 8-OHdG in isolated DNA samples from plant leaf tissue or isolated chloroplast suspensions. […] Sample absorbance was read at 450 nm on an Infinite MPlex plate reader (Tecan).
In data set [6] the test system is isolated chloroplasts. The data set can be described thus: Intact chloroplast analysis by DIC microscopy. Further details: species or system Arabidopsis thaliana. Conditions: 1 and 5 days, 20 mg/L / 2 mg/L.
From the text: as §2
Identification of intact chloroplast was performed as reported in previous studies^4,5 with some modifications. […] The average from ten images from each of the seven biological replicates was quantified for calculating the average percentage of intact chloroplasts.

The nature of data set [7]: Hydrodynamic size by dynamic light scattering. Conditions: 10 mM TES buffer, pH 7. In kind it is physicochemical. As for the experimental part: as §1
Characterization of Nanomaterials. All nanomaterials were characterized by absorbance UV-vis spectroscopy (UV-2600 Shimadzu), hydrodynamic size (Nano S), and ζ potential (Nano ZS). The nanomaterial ζ potential and hydrodynamic diameter were measured in a 10 mM TES buffer (pH 7.0). The ζ potential measurements were performed in 0.1 mM NaCl to improve conductivity and analyzed by the Hückel approximation model.^111 CD fluorescence emission was collected using a fluorescence spectrometer (Horiba PTI QM-400). […]

Ends that are not written are not given here. Some results are limits rather than exact numbers.

As to “TP-β-CD: carbon dots with β-cyclodextrin molecular baskets covalently bonded to chloroplast targeting peptide MASSMLSSATMVGGC (SEQ ID NO:5) (also: covalently bonded to carbon dots with β-cyclodextrin, site not given here)”, the “chlorophyll content index (CCI)” value was determined as 35.5±1.4 in data set [1] (after 1 day of exposure) and 38.0±2.8 in data set [1] (after 5 days of exposure). For the same substance, in data set [2] (Arabidopsis leaves, up to 5 days), the biocompatible concentration came to 20 mg/L. The “percentage of dead cells” value in data set [2] (TP-β-CD 20 mg/L, TP-pATV1-SWCNT 2 mg/L, summary) came to 6%; in data set [2] (day 5, 100 mg/L) it was 20.0±4.8%; in data set [2] (day 5, 500 mg/L), 23.4±4.8%. Further, the “percentage of dead cells compared to control plants” value in data set [2] (after 5 days of exposure, TP-β-CDs 20 mg/L, TP-pATV1-SWCNTs 2 mg/L) was “no significant differences”. Moreover, the “plant dead cells relative to controls without nanoparticles” value in data set [2] (day 1, TP-β-CDs 20 mg/L, TP-pATV1-SWCNTs 2 mg/L) is recorded as “no significant differences”. Moreover, in data set [3] (10 mM TES buffer, pH 7.0), the ζ potential is on record as −36.4±3.4 mV. In addition, in data set [3] (higher in magnitude than), the “ζ potential, magnitude” value was more than 30 mV. Further, the “cell and chloroplast membrane damage” value in data set [4] was “no permanent cell and chloroplast membrane damage”. The “increase in oxidative damage to whole plant cell DNA” value in data set [5] was 2 fold. In data set [6], the chloroplast membrane intactness entry is reported as “did not affect chloroplast membrane damage”. Besides, the “hydrodynamic size (DLS)” value in data set [7] turned out to be 27.8±5.8 nm.
